Experimental findings from patent publication US20170015742A1 (published 2017) are described below.

Assay [1] deals with T1, Recombinant human FcγRIIb, 6xHis-tagged (human, UniProt P31994 46-217, limits assumed).
T1 construct: Captured through its 6xHis tag; also called huFcRIIb
T1 sequence: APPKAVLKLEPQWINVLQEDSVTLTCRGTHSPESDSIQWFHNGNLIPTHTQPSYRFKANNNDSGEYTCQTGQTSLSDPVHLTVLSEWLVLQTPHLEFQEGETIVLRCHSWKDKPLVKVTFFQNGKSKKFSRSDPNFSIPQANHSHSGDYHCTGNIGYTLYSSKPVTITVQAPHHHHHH
In words: Biacore SPR; His-tagged human FcγR captured on anti-6xHis antibody, DVD-Ig injected. As for the experimental part: (§1) A CM5 chip (GE Healthcare, Pittsburgh, Pa.) with mouse anti-6×His antibodies (“6×His” disclosed as SEQ ID NO: 405) that were directly immobilized on the chip via amine coupling according to the GE Healthcare protocol to the density of 10000RU (all flow cells) was used for experiments. Human FcγRs were captured on flow cells 2, 3 and 4. Flow cell 1 was used as a reference surface. HBS-EP+ was used as the running buffer. […] The chip surfaces were regenerated with an injection of 10 mM glycine pH 1.5 at a flow rate of 100 μL/minute over all four flow cells after each cycle.
(In general: In SPR one partner is held on a chip, and binding of the other changes the refractive index at the surface.)

Assay [2] addresses T2, Recombinant human FcγRIIa H131, 6xHis-tagged (human, UniProt P12318 36-218, limits assumed).
T2 construct: Captured through its 6xHis tag
T2 sequence: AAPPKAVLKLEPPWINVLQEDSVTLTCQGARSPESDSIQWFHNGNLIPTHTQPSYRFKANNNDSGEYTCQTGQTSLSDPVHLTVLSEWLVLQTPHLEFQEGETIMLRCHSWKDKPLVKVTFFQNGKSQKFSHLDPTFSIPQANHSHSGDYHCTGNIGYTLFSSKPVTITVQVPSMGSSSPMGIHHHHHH
The description is as above. As for the experimental part:
as §1

Assay [3] concerns the target T3, Recombinant human FcγRIIa R131, 6xHis-tagged (human, UniProt P12318 36-218, limits assumed).
T3 construct: Captured through its 6xHis tag
T3 sequence: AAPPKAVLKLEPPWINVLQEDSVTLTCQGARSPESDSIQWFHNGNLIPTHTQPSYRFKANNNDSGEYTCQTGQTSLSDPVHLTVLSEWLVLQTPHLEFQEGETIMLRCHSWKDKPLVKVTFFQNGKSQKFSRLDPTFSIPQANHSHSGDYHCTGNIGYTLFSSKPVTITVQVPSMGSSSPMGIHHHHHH
Described as above. As for the experimental part: as §1

In assay [4] the target is T4, Recombinant human FcγRIIIa F158, 6xHis-tagged (human, UniProt P08637 17-208, limits assumed).
T4 construct: Captured through its 6xHis tag
The description is as above. As for the experimental part: as §1

Assay [5] addresses T5, Recombinant rat FcRn (rat, UniProt P13599 23-298, limits assumed).
T5 construct: FcRn is normally a heterodimer with beta-2-microglobulin
T5 sequence (looked up) 1: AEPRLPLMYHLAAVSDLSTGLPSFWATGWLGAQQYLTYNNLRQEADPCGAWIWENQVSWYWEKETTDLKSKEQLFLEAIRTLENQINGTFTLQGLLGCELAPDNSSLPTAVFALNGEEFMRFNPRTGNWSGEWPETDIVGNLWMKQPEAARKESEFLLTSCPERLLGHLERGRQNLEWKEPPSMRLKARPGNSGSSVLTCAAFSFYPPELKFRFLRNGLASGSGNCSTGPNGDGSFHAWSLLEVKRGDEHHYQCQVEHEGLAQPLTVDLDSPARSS
T5 sequence (looked up) 2: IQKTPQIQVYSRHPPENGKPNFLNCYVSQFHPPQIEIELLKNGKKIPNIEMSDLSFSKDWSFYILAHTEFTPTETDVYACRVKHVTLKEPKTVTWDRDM
Description: Biacore SPR; DVD-Ig immobilised by amine coupling, recombinant FcRn injected; 1:1 binding fit. As for the experimental part:
Human, cynomolgus, mouse, rat and rabbit recombinant FcRns were injected over all the flow cells at a flow rate of 50 μL/minute for 1 minute at a concentrations range of from 2.7 to 6000 nM (three fold serial dilution), followed by a 2 minute dissociation time. The surfaces were regenerated with an injection of 10 mM HCl at 100 μL/minute for 2 seconds followed by an injection of HBS-EP+, pH 7.4, at a flow rate of 50 μL/minute for 30 seconds over all four flow cells. Samples were prepared and run in two running buffer systems, pH 6.0 MES-EP+, and pH […]. Recombinant human FcγRIIIa V158 and rat and mouse FcRn data were fitted to 1:1 kinetic model. Recombinant human FcγRIIa R131 and FcγRIIa H131, FcγRIIIa F158, and recombinant human, cynomolgus and rabbit FcRn binding data were fitted to a steady state affinity model. Biacore T200 Evaluation Software version 2.0 was used to fit all the data.

Assay [6] concerns the target T6, Recombinant human FcγRIIIa V158, 6xHis-tagged (human, UniProt P08637 17-208, limits assumed).
T6 construct: Captured through its 6xHis tag; also called huFcRIIIa 158V
Description: Biacore SPR; His-tagged huFcγRIIIa 158V captured on anti-6xHis antibody, DVD-Ig injected; steady state fit. The method, then:
as §1
The binding of DVD-Ig molecules to FcRn from various species and the binding of DVD-Ig molecules to various FcγRs were characterized by Biacore using the method described in Example 1.2.

T4 sequence (P08637 other isoform, or with tags, fused parts or gaps limits assumed): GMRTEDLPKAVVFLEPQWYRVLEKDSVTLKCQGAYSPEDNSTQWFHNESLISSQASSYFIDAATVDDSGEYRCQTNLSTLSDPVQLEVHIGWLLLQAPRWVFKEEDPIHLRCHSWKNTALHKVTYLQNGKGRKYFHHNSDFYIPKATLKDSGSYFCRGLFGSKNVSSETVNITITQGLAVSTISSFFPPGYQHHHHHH
T6 sequence (P08637 other isoform, or with tags, fused parts or gaps limits assumed): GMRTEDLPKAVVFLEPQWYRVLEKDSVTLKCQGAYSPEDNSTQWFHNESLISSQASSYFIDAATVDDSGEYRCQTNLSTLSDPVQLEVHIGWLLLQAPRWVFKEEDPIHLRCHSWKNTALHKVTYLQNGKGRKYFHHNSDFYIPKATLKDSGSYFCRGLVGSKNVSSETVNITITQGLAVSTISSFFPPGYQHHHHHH

B1: 4G8.3-SL-9E8.4(g) (PR-1572105), anti-VEGF-A/anti-PDGF-BB DVD-Ig, hu IgG1/k L234A L235A H435A (bispecific antibody)
heavy: EVQLVQSGSELKKPGASVKVSCKASGYTFTNYGMYWVRQAPGQGLEWMGWINTETGKPTYADDFKGRFVFSLDTSVSTAYLQISSLKAEDTAVYYCARTNYYYRSYIFYFDYWGQGTMVTVSSASTKGPEVTLRESGPALVKPTQTLTLTCTFSGFSLSTYGMGVGWIRQPPGKALEWLANIWWDDDKYYNPSLKNRLTISKDTSKNQVVLTMTNMDPVDTATYYCARIESIGTTYSFDYWGQGTMVTVSSASTKGPSVFPLAPSSKSTSGGTAALGCLVKDYFPEPVTVSWNSGALTSGVHTFPAVLQSSGLYSLSSVVTVPSSSLGTQTYICNVNHKPSNTKVDKKVEPKSCDKTHTCPPCPAPEAAGGPSVFLFPPKPKDTLMISRTPEVTCVVVDVSHEDPEVKFNWYVDGVEVHNAKTKPREEQYNSTYRVVSVLTVLHQDWLNGKEYKCKVSNKALPAPIEKTISKAKGQPREPQVYTLPPSREEMTKNQVSLTCLVKGFYPSDIAVEWESNGQPENNYKTTPPVLDSDGSFFLYSKLTVDKSRWQQGNVFSCSVMHEALHNAYTQKSLSLSPGK
light: DTVLTQSPATLSLSPGERATLSCRASESVSTHMHWYQQKPGQAPRLLIYGASNLESGVPARFSGSGSGTDFTLTISSLEPEDFAVYFCQQSWNDPFTFGQGTKLEIKRTVAAPSVFIFPPEFVLTQSPGTLSLSPGERATLSCERSSGDIGDSYVSWYQQKPGQAPRLVIYADDQRPSGIPDRFSGSGSGTDFTLTISRLEPEDFAVYYCQSYDINIDIVFGGGTKVEIKRTVAAPSVFIFPPSDEQLKSGTASVVCLLNNFYPREAKVQWKVDNALQSGNSQESVTEQDSKDSTYSLSSTLTLSKADYEKHKVYACEVTHQGLSSPVTKSFNRGEC
notes: also called hu VEGF 4G8.3-SL-hu PDGF 9E8.4 (germline) [hu IgG1/k]; LALA H435A
For orientation: Kd means the equilibrium constant for the complex coming apart. Take B1: the binding result in assay [1] is listed as “no binding (tested: DVD-Ig 31.25 to 4000 nM)”; in assay [2], “no binding (tested: DVD-Ig 31.25 to 4000 nM)”; in assay [3] it was “no binding (tested: DVD-Ig 31.25 to 4000 nM)”; in assay [4] it was “no binding (tested: DVD-Ig 31.25 to 4000 nM)”; in assay [5] it was “no binding (tested: FcRn 2.7 to 6000 nM)”. The Kd in assay [6] was 6.2 µM.

B2: 4G8.3-GS-9E8.4(g) (PR-1572102), anti-VEGF-A/anti-PDGF-BB DVD-Ig, hu IgG1/k L234A L235A H435A (bispecific antibody)
heavy: EVQLVQSGSELKKPGASVKVSCKASGYTFTNYGMYWVRQAPGQGLEWMGWINTETGKPTYADDFKGRFVFSLDTSVSTAYLQISSLKAEDTAVYYCARTNYYYRSYIFYFDYWGQGTMVTVSSGGGGSGGGGSEVTLRESGPALVKPTQTLTLTCTFSGFSLSTYGMGVGWIRQPPGKALEWLANIWWDDDKYYNPSLKNRLTISKDTSKNQVVLTMTNMDPVDTATYYCARIESIGTTYSFDYWGQGTMVTVSSASTKGPSVFPLAPSSKSTSGGTAALGCLVKDYFPEPVTVSWNSGALTSGVHTFPAVLQSSGLYSLSSVVTVPSSSLGTQTYICNVNHKPSNTKVDKKVEPKSCDKTHTCPPCPAPEAAGGPSVFLFPPKPKDTLMISRTPEVTCVVVDVSHEDPEVKFNWYVDGVEVHNAKTKPREEQYNSTYRVVSVLTVLHQDWLNGKEYKCKVSNKALPAPIEKTISKAKGQPREPQVYTLPPSREEMTKNQVSLTCLVKGFYPSDIAVEWESNGQPENNYKTTPPVLDSDGSFFLYSKLTVDKSRWQQGNVFSCSVMHEALHNAYTQKSLSLSPGK
light: DTVLTQSPATLSLSPGERATLSCRASESVSTHMHWYQQKPGQAPRLLIYGASNLESGVPARFSGSGSGTDFTLTISSLEPEDFAVYFCQQSWNDPFTFGQGTKLEIKRGGSGGGGSGEFVLTQSPGTLSLSPGERATLSCERSSGDIGDSYVSWYQQKPGQAPRLVIYADDQRPSGIPDRFSGSGSGTDFTLTISRLEPEDFAVYYCQSYDINIDIVFGGGTKVEIKRTVAAPSVFIFPPSDEQLKSGTASVVCLLNNFYPREAKVQWKVDNALQSGNSQESVTEQDSKDSTYSLSSTLTLSKADYEKHKVYACEVTHQGLSSPVTKSFNRGEC
notes: also called 4G8.3-GS(9)-9E8.4 (g); hu VEGF 4G8.3-GS-hu PDGF 9E8.4 (germline) [hu IgG1/k]; LALA H435A
B2: the binding result was “no binding (tested: DVD-Ig 31.25 to 4000 nM)” in assay [1]; “no binding (tested: DVD-Ig 31.25 to 4000 nM)” in assay [2]; “no binding (tested: DVD-Ig 31.25 to 4000 nM)” in assay [3]; “no binding (tested: DVD-Ig 31.25 to 4000 nM)” in assay [4]; “no binding (tested: FcRn 2.7 to 6000 nM)” in assay [5]. Besides, the Kd in assay [6] was 7.4 µM.

B3: 4G8.3-GS-9E8.4 (PR-1569574), anti-VEGF-A/anti-PDGF-BB DVD-Ig, hu IgG1/k mut(234,235) H435A (bispecific antibody)
heavy: EVQLVQSGSELKKPGASVKVSCKASGYTFTNYGMYWVRQAPGQGLEWMGWINTETGKPTYADDFKGRFVFSLDTSVSTAYLQISSLKAEDTAVYYCARTNYYYRSYIFYFDYWGQGTMVTVSSGGGGSGGGGSEVTLRESGPALVKPTQTLTLTCTFSGFSLSTYGMGVGWIRQPPGKALEWLANIWWDDDKYYNPSLKNRLTISKDTSKNQVVLTMTNMDPVDTATYYCARIESIGTTYSFDYWGQGTMVTVSSASTKGPSVFPLAPSSKSTSGGTAALGCLVKDYFPEPVTVSWNSGALTSGVHTFPAVLQSSGLYSLSSVVTVPSSSLGTQTYICNVNHKPSNTKVDKKVEPKSCDKTHTCPPCPAPEAAGGPSVFLFPPKPKDTLMISRTPEVTCVVVDVSHEDPEVKFNWYVDGVEVHNAKTKPREEQYNSTYRVVSVLTVLHQDWLNGKEYKCKVSNKALPAPIEKTISKAKGQPREPQVYTLPPSREEMTKNQVSLTCLVKGFYPSDIAVEWESNGQPENNYKTTPPVLDSDGSFFLYSKLTVDKSRWQQGNVFSCSVMHEALHNAYTQKSLSLSPGK
light: DTVLTQSPATLSLSPGERATLSCRASESVSTHMHWYQQKPGQAPRLLIYGASNLESGVPARFSGSGSGTDFTLTISSLEPEDFAVYFCQQSWNDPFTFGQGTKLEIKRGGSGGGGSGEFVLTQSPGTLSLSPGERATLSCERSSGDIGDSYVSWYQQKPGQAPRLVIYADDQRPSGIPDRFSGSGSGTDFTLTISRLEPEDFAVYYCQSYDINIDIVFGGGTKVEIKGTVAAPSVFIFPPSDEQLKSGTASVVCLLNNFYPREAKVQWKVDNALQSGNSQESVTEQDSKDSTYSLSSTLTLSKADYEKHKVYACEVTHQGLSSPVTKSFNRGEC
notes: also called hVEGF 4G8.3-GS-hPDGF 9E8.4 [hu IgG1/k] mut(234, 235) H435A
As for B3, the binding result is “no binding (tested: DVD-Ig 31.25 to 4000 nM)” in assay [1]; “no binding (tested: DVD-Ig 31.25 to 4000 nM)” in assay [2]; “no binding (tested: DVD-Ig 31.25 to 4000 nM)” in assay [3]; “no binding (tested: DVD-Ig 31.25 to 4000 nM)” in assay [4]; “no binding (tested: FcRn 2.7 to 6000 nM)” in assay [5]. For the same molecule, in assay [6], the Kd worked out at 16 µM.
